This note sets out measurements from patent US5767078A, “Agonist peptide dimers” (priority 1995, dated 1998).

Bridge positions count the residues as written; N and C are the ends. Ends that are not written are not given here.

One experiment concerns the target T1, murine EPO receptor (Mus musculus, UniProt P14753).
T1 construct: expressed in transfected cells; host or cells: FDC-P1/ER cells
T1 sequence (P14753 25-507): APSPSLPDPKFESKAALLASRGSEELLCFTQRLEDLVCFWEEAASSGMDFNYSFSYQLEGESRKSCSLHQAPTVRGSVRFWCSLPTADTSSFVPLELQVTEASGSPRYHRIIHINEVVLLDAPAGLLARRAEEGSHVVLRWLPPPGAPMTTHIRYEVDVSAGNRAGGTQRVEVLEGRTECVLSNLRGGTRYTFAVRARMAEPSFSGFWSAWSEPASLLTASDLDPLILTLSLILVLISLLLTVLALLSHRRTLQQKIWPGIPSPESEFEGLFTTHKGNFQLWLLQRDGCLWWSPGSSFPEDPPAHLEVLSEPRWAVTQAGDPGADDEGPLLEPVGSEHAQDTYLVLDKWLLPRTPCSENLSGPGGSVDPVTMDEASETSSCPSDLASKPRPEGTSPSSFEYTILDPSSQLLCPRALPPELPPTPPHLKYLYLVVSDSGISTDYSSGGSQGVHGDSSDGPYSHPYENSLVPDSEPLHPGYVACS
Briefly: EPO dependent cell proliferation assay, FDC-P1/ER cells. In kind it is cell-based. Here is the method:
After 24 hours, the cells were counted, resuspended at 800,000 cells/ml and dispensed at 40,000 cells/well. Stock solutions of the peptide dimer (5 mM in PBS) and peptide (10 mM in DMSO) were prepared and dispensed in triplicate to final concentrations of 1×10^-10 M through 1×10^-5 M and adjusted to a final volume of 0.2 ml. […] After a 42 hr incubation at 37° C. (ca. 2 cell doublings) 1 μCi/well of [^3 H] thymidine was added and the incubation continued for 6 hr at which time the cells were harvested and counted to assess [^3 H]thymidine incorporation as a measure of cell proliferation.

The subject of the next experiment is BDF1 mice. The experiment is described as follows: Polycythemic exhypoxic mouse bioassay ([59Fe] incorporation into nascent red blood cells). In kind it is in vivo. To be noted: on a mole equivalent basis. Here is the method: Peptides were assayed for in vivo activity in the polycythemic mouse bioassay adapted from the method described by Cotes and Bangham (1961), Nature 191: 1065-1067. BDF1 mice were allowed to acclimate to ambient conditions for 7-10 days. Body weights were determined for all animals. Low weight animals (<15 grams) were not used. Mice were introduced to hypobaric chambers with a 24 hour conditioning cycle consisting of 0.40% +/-0.02 atm. for 18 hours followed by 6 hours at ambient pressure for a total of 14 days. Following the 14 day period, mice were placed in ambient pressure for 72 hours prior to dosing. […] Peptide sample stock solutions (excluding peptide dimers) were first solubilized in dimethyl sulfoxide (DMSO). Control groups included one group of vehicle alone, and one group of (DMSO) at final concentration of 1%.
Each dose group contained 10 mice. Mice were injected subcutaneously (scruff of neck) with 0.5 ml of the appropriate sample. […]
Mouse body weights were determined twenty four hours following [^59 Fe] administration and the mice were sacrificed forty eight hours following the [^59 Fe] injection. Blood was collected from each animal by cardiac puncture and hematocrits were determined (heparin was used as the anticoagulant). Each blood sample (0.2 ml) was analyzed for [^59 Fe] incorporation using a Packard gamma counter. […]

Take “peptide (SEQ ID NO: 8)/PEG-dimer: PEG dimer of peptide SEQ ID NO: 8, lot not stated for the in vivo bioassay (GGTYSCHFGPLTWVCKPQGG-NH2; disulfide 6-15 (inferred); also: PEG covalent dimer)”: the “increase in potency versus parent peptide, murine receptor line” value with murine EPO receptor is recorded as 10 fold. The “in vivo activity of dimer relative to monomer” value in the experiment on BDF1 mice is on record as “about 10 fold”.
